Read-outs that look alike come from different tables or passages of the source. Blank lines part the entries; values can stand above or below the binder they belong to.
Tests used:
human IL-11 [1] = target: T1, human IL-11 (human, UniProt P20809 22-199); experiment: indirect ELISA on plate-coated recombinant human IL-11 (1 µg/mL), detection with HRP anti-human IgG (Fc-specific), absorbance 450-570 nm
T1 construct: In the ELISAs this is recombinant human IL-11 coated on the plate (expressed in CHO cells as Fc-tagged and tag-free versions); In the fibroblast assays it is the IL-11 produced by human fibroblasts after TGFβ1 stimulation; also called recombinant human IL-11 (GenScript Cat. No. Z03108-1); interleukin 11
T1 sequence (looked up): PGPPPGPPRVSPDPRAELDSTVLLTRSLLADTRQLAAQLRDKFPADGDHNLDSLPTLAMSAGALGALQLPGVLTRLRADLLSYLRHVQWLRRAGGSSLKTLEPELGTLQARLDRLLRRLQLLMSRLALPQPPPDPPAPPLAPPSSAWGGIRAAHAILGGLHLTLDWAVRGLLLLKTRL

human IL-11 [2] = target: T1, human IL-11; experiment: EC50 from the indirect ELISA titrations of FIGS. 28A-28F on plate-coated recombinant human IL-11 (five-parameter fit), ng/ml is the concentration unit of FIG. 28 and paragraph 502
human IL-11 [3] = target: T1, human IL-11; experiment: EC50 by indirect ELISA on plate-coated recombinant human IL-11 (five-parameter fit); no titration curve of Yu33-B4 is drawn in FIGS. 28A-28F, ng/ml is the concentration unit of FIG. 28 and paragraph 502
human IL-11 [4] = target: T1, human IL-11; experiment: indirect ELISA on plate-coated recombinant human IL-11 (1 µg/mL), detection with HRP anti-human IgG (Fc-specific), absorbance 450-570 nm; remark: listed apart in the source

binding result (human IL-11 [1]): binds
B1: Yu33-H3 (IgG) (antibody, V domains shown)
VH: EVQLVESGGGFVKPGGSLSISCAASGFTFSGAYMNWVRQAPGKGLEWVAVISYDGSNKYYADSVKGRFTISRDNSKNTLYLQMNSLRAEDTAVYYCARDLYAFDIWGQGTMVTVSS
VL: LPVLTQPHSVSESPGRTVTISCTRNTGNIASNRVQWYQQRPASAPTVVIYDNHQRPSGVPDRFSGSIDTSPNSAYLTISGLKTEDEADYYCQSYDYSSVIFGGGTQLTVL
notes: also called YU33-B3/H3; #2

EC50 (human IL-11 [2]): 0.0142 µg/mL | EC50 (human IL-11 [3]): 0.198 µg/mL
B2: YU33-B4/YU45-G2/A3 (Fc fusion)
VH: EVQLVESGGGVVQPGRSLRLSCAASGFTFSSYGMHWVRQAPGKGLEWVAVISYDGSNKYYADSVKGRFTISRDNSKNTLYLQMNSLRAEDTAVYYCAKIGATDPLDYWGQGTLVTVSS
VL: QSALTQPASVSGSPGQSITISCTGTSSDVGGYNYVSWYQQHPGKAPKLMIYDVSNRPSGVSNRFSGSKSGNTASLTIFGLQAEDEADYYCSSYTSSSSWVFGGGTKLTVL
notes: tested as scFv-Fc (human IgG1)

binding result (human IL-11 [4]): no binding (tested: 800 ng/ml)
B3: Yu33-A2 (IgG) (antibody, V domains shown)
VH: QLQQSGPGLVKPSQTLSLTCAISGDSVSSNSAAWNWIRQSPSRGLEWLGRTYYRSKWYNDYAVSVKSRITINPDTSKNQFTLQLNSVTPDDTAVYYCARGTRGYFDYWGQGTLVTVSS
VL: DVVMTQSPSSLSASVGDRVTITCRASQDVGRYVAWYQQKVGKVPRLLIYAASALQSGVPSRFSGTASETSFTLTISSLQPEDVASYYCQQYRSAPLAFGGGTGVEIK
notes: also called #1
